Columns and labels:
[1] = molecular target: aerobactin synthetase IucA from hypervirulent Klebsiella pneumoniae hvKP1 (Klebsiella pneumoniae hvKP1 (hypervirulent pathotype)); test: native gel or EMSA
[2] = molecular target: aerobactin synthetase IucA from hypervirulent Klebsiella pneumoniae hvKP1 (Klebsiella pneumoniae hvKP1 (hypervirulent pathotype)); test: SEC
[3] = molecular target: aerobactin synthetase IucA from hypervirulent Klebsiella pneumoniae hvKP1 (Klebsiella pneumoniae hvKP1 (hypervirulent pathotype)); test: SAXS

Measured: stoichiometry N

aerobactin synthetase IucA from hypervirulent Klebsiella pneumoniae hvKP1 (from UniProt A0ACD7U9R1 1-596) (enzyme)
4: all assays above
